The results in this text go back to patent US20220411514A1, “ANTI-GAL3 ANTIBODIES AND METHODS OF USE FOR INSULIN RESISTANCE” (TrueBinding, Inc., priority 2021, published 2022).

The test system of assay [1] is GLUT4 translocation in L6 GLUT4myc myoblasts. The assay is described as follows: Insulin-stimulated GLUT4 translocation with Gal3 and anti-Gal3 antibody. The settings on record: 30 μg/mL Gal3 pre-incubated with 60 μg/mL antibody, 100 nM insulin. The format is cell-based, rat. The protocol:
Rat L6 GLUT4myc myoblasts (Kerafast #ESK202-FP) express a Myc-tagged GLUT4 that can be detected with an anti-Myc antibody. These cells were grown in a 48-well plate in MEM u growth media (Gibco, #12-571-063)+10% fetal bovine serum (FBS; Corning #35-016-CV) until 90-95% confluence was reached. Cells were then washed in PBS and serum starved for 2 hours in MEM u growth media without FBS. Thirty (30) μg/mL recombinant human Gal3 (TrueBinding QCB200347) was pre-incubated with 60 μg/mL anti-Gal3 antibodies for 30 minutes before being added to the serum-starved cells for 1 hour at 37° C. At the end of incubation, half of the cells were treated with 100 nM insulin (Sigma-Aldrich #I5523-50MG) for 20 minutes while the other half acted as basal controls. After 20 minutes, cells were washed quickly with ice cold PBS twice, then incubated with 4% paraformaldehyde (Boster Bio #AR1068) for 10 minutes on ice followed by 10 minutes at room temperature. The cells were washed three times with PBS, then blocked with 0.5 mL 5% goat serum (Vector Laboratories #101098-382) in PBS for 15 minutes. After the blocking agent was aspirated from the cells, 1 μg/ml anti-Myc polyclonal antibody (Sigma-Aldrich #C-3956) in 5% goat serum was added for 1 hour. […] Primary antibody was aspirated away, and then cells washed 5 times with PBS. Next, cells (including background controls) were incubated with 1:1000 goat anti rabbit antibody secondary antibody (Abcam #Ab97051) in 5% Goat serum for 30 minutes at room temperature. After washing, cells were incubated with 400 μL of TMB (Thermo Scientific #PI34029) for 5 minutes, then 200 μL of 1N HCL (Avantor Performance #JT5620-2) was added to stop the reaction. 100 μL of the sample was transferred to a 96 well plate with duplicates transferred for each condition. Samples were read at 450 nm on a SpectraMax plate reader. […] The fold changes were plotted on GraphPad Prism and presented as mean (SEM) of the technical replicates. Statistical significance was determined using unpaired T-tests comparing samples treated with Gal3 and insulin with all other conditions.

The next assay has as its target T1, Human Gal3 peptides (Homo sapiens, UniProt P17931).
T1 construct: purchased LifeTein custom order
The assay is described as follows: Gal3 peptide binding ELISA (Example 8). To be noted: antibody 5 μg/mL. The protocol: Gal3 peptide binding activity of additional exemplary anti-Gal3 antibodies was assessed with the same peptides as described in FIG. 18 (SEQ ID NOs: 3-26). Human Gal3 peptides (LifeTein, custom order) and human Gal3 proteins (R&D Systems, 8259-GA; TrueBinding, QCB200349) were diluted in PBS (Corning, 21-030-CM) to concentrations of at least 100 μg/mL (peptides) or 1 μg/mL (proteins), and added to the wells of several 96-well ELISA plates (Thermo Fisher, 44-2404-21). After incubating the plates at 4° C. overnight, the plates were washed three times with PBST (PBS with 0.05% Tween 20 [VWR, 0777]). The plates were then blocked for an hour with 2% BSA (EMD Millipore, 126609) in PBST at room temperature with gentle rocking. Thereafter, the 2% BSA in PBST was discarded and Gal3-binding antibodies (reformatted hIgG4 [S228P]) were diluted in 2% BSA in PBST to concentrations of 5 μg/mL and added to the wells. The plates were incubated for an hour at room temperature with gentle rocking and then washed three times with PBST. Afterwards, Peroxidase AffiniPure F(ab′)2 Fragment Goat Anti-Human IgG (H+L) polyclonal antibody (Jackson ImmunoResearch, 109-036-003), was diluted in 2% BSA in PBST (1:4000) and added to the wells. The plates were incubated for 1 hour at room temperature with gentle rocking and then washed three times with PBST. TMB substrate (Thermo Scientific, 34029) was then added to each well. The reaction was stopped with 1M HCl (JT Baker, 5620-02) and read using a plate reader (Molecular Devices) at absorbance of 450 nm.
(In general: An ELISA detects its analyte on a solid surface through an enzyme-linked reagent.)

A further assay has as its target T2, human Gal3 (Homo sapiens, UniProt P17931).
T2 construct: 6xHis (linker-spaced) (C); purchased AcroBio (Acro Biosystems) GA3-H5129
Briefly: Epitope binning, sandwich format, SPR Carterra LSA (Example 8). The format is binding. The method, then: The epitope binning assay was done in a sandwich format on the high-throughput SPR-based Carterra LSA unit (CarterraBio, Salt Lake City, Utah). First, the purified antibodies were diluted to 10 μg/ml concentration in 10 mM NaOAc (pH 5.0) and then were covalently coupled via amine group to HC200M chip activated by EDC and S-NHS to immobilize antibodies to different positions of a 384-spot array. One hundred thirty-eight binning cycles were run on the array of immobilized antibodies. In each cycle, first, human Gal3 (AcroBio GA3-H5129) was injected over the entire array to bind to different antibodies (primary antibody), followed by one antibody (secondary antibody) selected among the panel of 150 anti-GAL3 antibodies tested. At the end of each cycle, the array was regenerated by 10 mM Glycine (pH 2.0) to remove bound antigen and secondary antibody from the array. The data analysis was done using the Epitope software by CarterraBio.

T2 sequence (P17931 whole entry): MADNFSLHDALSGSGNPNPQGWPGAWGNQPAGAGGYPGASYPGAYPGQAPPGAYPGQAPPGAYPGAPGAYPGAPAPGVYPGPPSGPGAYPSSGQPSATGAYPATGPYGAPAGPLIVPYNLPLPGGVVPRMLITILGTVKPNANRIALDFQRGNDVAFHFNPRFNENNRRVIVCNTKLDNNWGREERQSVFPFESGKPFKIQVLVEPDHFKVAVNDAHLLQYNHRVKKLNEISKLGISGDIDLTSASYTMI

B1: 2D10-hVH4-HVL2: anti-Gal3 antibody, VH SEQ ID NO: 807, VL SEQ ID NO: 822 (antibody, V domains shown)
VH: QVQLVQSGAEVKKPGASVKVSCKASGYTFTDYYINWVRQAPGQRLEWMGWIYPGSQDTKYNEKFQGRVTLTVDTSASTAYMELSSLRSEDTAVYFCANYFGSSGWFFDVWGQGTMVTVSS
VL: DIVMTQSPLSLPVTPGEPASISCRSSKSLLHSDGITYLYWYLQKPGQSPQLLIYRMSNLASGVPDRFSGSGSGTDFTLKISRVEAEDVGVYYCAQMIEFPLTFGQGTKLEIK
modifications: VH-81 Peptide Sequence; VL-79 Peptide Sequence
With B1, the “effect on Gal3 block of insulin-stimulated GLUT4 translocation” value (from here on “effect on Gal3 block”) in assay [1] was “reduce the ability of Gal3 to block GLUT4 translocation”.

B2: 2D10-hVH4-HVL3: anti-Gal3 antibody, VH SEQ ID NO: 808, VL SEQ ID NO: 823 (antibody, V domains shown)
VH: QVQLVQSGAEVKKPGASVKVSCKASGYTFTDYYINWVRQAPGQRLEWMGWIYPGSQDTKYNEKFQGRVTLTVDTSASTAYMELSSLRSEDTAVYFCANYFGSSGWFFDVWGQGTMVTVSS
VL: DVVMTQSPLSLPVTLGQPASISCRSSKSLLHSDGITYLYWYQQRPGQSPRLLIYRMSNRDSGVPDRFSGSGSGTDFTLKISRVEAEDVGVYYCAQMIEFPLTFGQGTKLEIK
modifications: VH-82 Peptide Sequence; VL-80 Peptide Sequence
In the case of B2, the “effect on Gal3 block” value in assay [1] is recorded as “reduce the ability of Gal3 to block GLUT4 translocation”.

B3: 2D10-hVH4-HVL4: anti-Gal3 antibody, VH SEQ ID NO: 809, VL SEQ ID NO: 824 (antibody, V domains shown)
VH: QVQLVQSGAEVKKPGASVKVSCKASGYTFTDYYINWVRQAPGQRLEWMGWIYPGSQDTKYNEKFQGRVTLTVDTSASTAYMELSSLRSEDTAVYFCANYFGSSGWFFDVWGQGTMVTVSS
VL: DIVMTQSPLSLPVTLGQPASISCRSSKSLLHSDGITYLYWYQQRPGQSPQLLIYRMSNLDSGVPDRFSGSGSGTDFTLKISRVEAEDVGVYYCAQMIEFPLTFGQGTKLEIK
modifications: VH-83 Peptide Sequence; VL-81 Peptide Sequence
Consider B3, for which, in assay [1], the “effect on Gal3 block” value is listed as “reduce the ability of Gal3 to block GLUT4 translocation”.

B4: 2D10-hVH3-HVL1: anti-Gal3 antibody, VH SEQ ID NO: 810, VL SEQ ID NO: 825 (antibody, V domains shown)
VH: QVQLVQSGAEVKKPGASVKVSCKASGYTFTDYYINWVRQAPGQRLEWMGWIYPGSQDTKYSQKFQGRVTITVDTSASTAYMELSSLRSEDTAVYYCANYFGSSGWFFDVWGQGTMVTVSS
VL: DIVMTQSPLSLPVTPGEPASISCRSSKSLLHSDGITYLYWYLQKPGQSPQLLIYRMSNRASGVPDRFSGSGSGTDFTLKISRVEAEDVGVYYCAQMIEFPLTFGQGTKLEIK
modifications: VH-84 Peptide Sequence; VL-82 Peptide Sequence
With B4, the “effect on Gal3 block” value in assay [1] was “reduce the ability of Gal3 to block GLUT4 translocation”.

B5: 847.28D1: anti-Gal3 antibody (antibody, V domains shown)
VH: QVQLVETGPGLVAPSQSLSITCTVSGFSLTSYGVHWIRQSPGKGLEWLGTIWAGGSTDYNSPLMSRLSISKDNSKNQVFLKMNSLQIDDTAIYYCASPPSGYDYDVFASWGQGTLVTVSA
VL: DIRMTQSPASLSASVGETVTITCRASGNIHNYLAWYHQKQGKSPQLLVYNVKTLADGVPSRFSGSGSGTQFSLKINSLQPEDFGTYYCQHFWSIFPTFGGGTKLEIK
Consider B5, for which the “binding to Gal3 peptide 6 (SEQ ID NO: 8)” value with Human Gal3 peptides is reported as “bound”. In the assay with human Gal3, the “epitope bin (mutual competitive binding for Gal3)” value (from here on “epitope bin”) was “CRD”.

B6: 847.3B3: anti-Gal3 antibody (antibody, V domains shown)
VH: QVQLKESGPGLVAPSQSLSITCTVSGFSLTSYGVHWIRQPPGKGLEWLGGIWAGGSTDYNSPLMSRLSITKDNSKSQVFLKMNSLQSDDTAMYYCASPPSGYDYDVFAYWGQGTLVTVSA
VL: DILMTQSPASLSASVGETVTITCRASGNIHNYLAWYQQKQGKSPQLLVYSAKTLADGVPSRFSGSGSGTQFSLKIDSLQPEDFGTYYCQHFWSLFPTFGGGTKLEIK
Take B6: the “binding to Gal3 peptide 17 (SEQ ID NO: 19)” value (shortened to “binding … (SEQ ID NO: 19)”) in the assay with Human Gal3 peptides is “bound”. Also, the “epitope bin” value in the assay with human Gal3 was “CRD”.

B7: 849.1D2: anti-Gal3 antibody (antibody, V domains shown)
VH: QVQLKESGPVLVAPSQSLSITCTVSGFSLSSYGVHWVRQPPGKGLEWLGVIWAGGSTDYDSALMSRLSISKDNSKSQVFLKMDSLQTDDTAMYYCAKPPYDYDGAWFAYWGQGTLVTVSA
VL: DVVMTQTPKFLLVSAGDRVTITCKASQSVSSDVAWYQQKPGQSPKLLIYFASNRYTGVPDRFTGSGYGTDFTFTISTVQAEDLAVYFCQHNYISPFTFGGGTKLEIK
Regarding B7, in the assay with Human Gal3 peptides, the “binding to Gal3 peptide 1 (SEQ ID NO: 3)” value is on record as “bound” and the “binding … (SEQ ID NO: 19)” value is listed as “bound”. For the same molecule, the “epitope bin” value with human Gal3 came to 11.

B8: 847.13E2-mH0mL1: anti-Gal3 antibody (antibody, V domains shown)
VH: EVQLQQSGPELVKPGASVKVSCKASGYSFTDYNMYWVMQSHGKSLEWIGYIDPYNDATSYSQKFTGKATLTVDKSSSTAFMHLNSLTSEDSAVYYCARWGRYEYYAMDYWGQGTSVTVSS
VL: DIVMTQSPASLPVSLGQRATISCRASKSVTTSAYSYIHWYQQRPGQPPKLLIYLASNLESGVPARFSGSGSGTDFTLNIHPVEEEDAATYYCQHNRELPPTFGGGTKLEIN
For B8, in the assay with Human Gal3 peptides, the “binding to Gal3 peptide 13 (SEQ ID NO: 15)” value (“binding … (SEQ ID NO: 15)” for short) was “bound” and the “binding … (SEQ ID NO: 19)” value is “bound”. In addition, in the assay with human Gal3, the “epitope bin” value is “CRD”.

B9: 847.13E2-mH0mL2: anti-Gal3 antibody (antibody, V domains shown)
VH: EVQLQQSGPELVKPGASVKVSCKASGYSFTDYNMYWVMQSHGKSLEWIGYIDPYNDATSYSQKFTGKATLTVDKSSSTAFMHLNSLTSEDSAVYYCARWGRYEYYAMDYWGQGTSVTVSS
VL: DIVLTQSPATLSVTPGDSVSFSCRASQIINNNLHWYQQKSHESPRLLIRYTSQSISGIPSRFSGSGSGTDFTLSINNVETEDFGMYFCQQTNSWPLTFGAGTKLELK
With B9, in the assay with Human Gal3 peptides, the “binding … (SEQ ID NO: 15)” value is “bound” and the “binding … (SEQ ID NO: 19)” value was “bound”. The “epitope bin” value with human Gal3 was “CRD”.

B10: 847.23F11: anti-Gal3 antibody (antibody, V domains shown)
VH: QVQLQQSGAELVRPGASVKLSCKASGYTFTSSWMNWVKQRPGQGLDWIGMIDPSDSETHYNQMFKDKATLTVDKSSNTAYMQLSRLTSEDSAVYYCVNSNYESGYWGQGTTLTVSS
VL: DILMTQSHKFMSTSVGDRVSITCKASQDVSSVVVWYQQKPGQSPKQLIYWASTRHTGVPDRFTGSGSGTDYTLTISSVQAEDLALYYCQQHYSTPYTFGGGTKLEIK
Regarding B10, in the assay with Human Gal3 peptides, the “binding … (SEQ ID NO: 15)” value is reported as “bound” and the “binding … (SEQ ID NO: 19)” value was “bound”. Also, the “epitope bin” value with human Gal3 was “CRD”.
